Experimental findings from publication PMC8423358 (Immunity, 2021) are described below.

This assay deals with DPP9, short isoform (DPP9S), co-expressed with CARD8 for cryo-EM (UniProt Q86TI2-1 1-863). As to the kind of experiment: cryo-EM structure.

Positions count from the first letter of the chain named. Names and notes keep the numbering of the source.

Sequence of DPP9, short isoform (DPP9S), co-expressed with CARD8 for cryo-EM (Q86TI2 whole entry, canonical isoform): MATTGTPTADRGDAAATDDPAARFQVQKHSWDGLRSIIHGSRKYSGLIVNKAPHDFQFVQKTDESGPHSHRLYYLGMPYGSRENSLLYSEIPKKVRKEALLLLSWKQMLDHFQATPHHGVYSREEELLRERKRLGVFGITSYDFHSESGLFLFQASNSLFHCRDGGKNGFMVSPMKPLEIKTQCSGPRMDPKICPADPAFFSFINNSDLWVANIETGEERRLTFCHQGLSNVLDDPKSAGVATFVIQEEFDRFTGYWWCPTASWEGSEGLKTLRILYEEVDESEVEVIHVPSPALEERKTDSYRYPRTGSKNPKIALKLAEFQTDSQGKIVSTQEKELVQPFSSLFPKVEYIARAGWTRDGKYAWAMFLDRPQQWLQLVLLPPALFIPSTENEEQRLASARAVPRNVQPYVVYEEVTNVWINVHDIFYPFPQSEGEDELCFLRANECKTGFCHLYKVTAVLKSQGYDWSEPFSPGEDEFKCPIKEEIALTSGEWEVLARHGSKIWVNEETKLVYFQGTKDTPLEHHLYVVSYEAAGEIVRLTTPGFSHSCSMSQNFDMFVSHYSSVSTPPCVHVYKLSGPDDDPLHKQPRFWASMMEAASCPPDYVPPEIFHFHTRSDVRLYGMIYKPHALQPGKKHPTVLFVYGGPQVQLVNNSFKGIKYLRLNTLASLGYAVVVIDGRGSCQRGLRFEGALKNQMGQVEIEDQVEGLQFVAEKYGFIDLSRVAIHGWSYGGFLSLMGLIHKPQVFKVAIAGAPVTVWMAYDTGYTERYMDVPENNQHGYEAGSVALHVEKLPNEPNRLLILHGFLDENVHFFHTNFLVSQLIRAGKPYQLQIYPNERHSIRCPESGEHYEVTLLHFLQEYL

B1: Full-length CARD8 (T60 isoform), molecule A of the CARD8-DPP9 ternary complex (natural protein, human, UniProt Q9Y2G2-5 1-537, looked up)
chain: MEKKECPEKSSSSEEELPRRDSGSSRNIDASKLIRLQGSRKLLVDNSIRELQYTKTGIFFQAEACVTNDTVYRELPCVSETLCDISHFFQEDDETEAEPLLFRAVPECQLSGGDIPSVSEEQESSEGQDSGDICSEENQIVSSYASKVCFEIEEDYKNRQFLGPEGNVDVELIDKSTNRYSVWFPTAGWYLWSATGLGFLVRDEVTVTIAFGSWSQHLALDLQHHEQWLVGGPLFDVTAEPEEAVAEIHLPHFISLQAGEVDVSWFLVAHFKNEGMVLEHPARVEPFYAVLESPSFSLMGILLRIASGTRLSIPITSNTLIYYHPHPEDIKFHLYLVPSDALLTKAIDDEEDRFHGVRLQTSPPMEPLNFGSSYIVSNSANLKVMPKELKLSYRSPGEIQHFSKFYAGQMKEPIQLEITEKRHGTLVWDTEVKPVDLQLVAASAPPPFSGAAFVKENHRQLQARMGDLKGVLDDLQDNEVLTENEKELVEQEKTRQSKNEALLSMVEKKGDLALDVLFRSISERDPYLVSYLRQQNL
B1: the binding result was “binds”.

B2: CARD8-S297A (autoproteolytic-deficient), full length, for cryo-EM (natural protein, human, UniProt Q9Y2G2-5 1-537, looked up)
chain: B1 chain with S297A
Regarding B2, the binding result is on record as “binds”.
